Laboratory results as given in publication PMC8319368 (The Journal of Biological Chemistry, 2021).

T1: Saccharomyces cerevisiae Pol32, PCNA-binding subunit of DNA polymerase delta (ScPol32) (Saccharomyces cerevisiae), P47110
T1 chain: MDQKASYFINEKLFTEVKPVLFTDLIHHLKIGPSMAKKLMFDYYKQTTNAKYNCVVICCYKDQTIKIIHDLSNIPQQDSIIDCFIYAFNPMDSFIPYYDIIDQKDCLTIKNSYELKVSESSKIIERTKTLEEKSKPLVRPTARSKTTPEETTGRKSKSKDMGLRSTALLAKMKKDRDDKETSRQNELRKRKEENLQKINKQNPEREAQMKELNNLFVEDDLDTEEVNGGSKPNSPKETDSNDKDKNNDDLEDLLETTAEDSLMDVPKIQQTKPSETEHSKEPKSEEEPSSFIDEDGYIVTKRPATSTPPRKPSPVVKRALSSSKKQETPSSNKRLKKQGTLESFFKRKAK

T2: Saccharomyces cerevisiae Pol32, PCNA-binding subunit of DNA polymerase delta (ScPol32) (Saccharomyces cerevisiae, UniProt P47110 1-350)
T2 sequence: T1 chain

B1: Saccharomyces cerevisiae PCNA (ScPCNA), wild type, P15873 1-258 (natural protein)
chain: MLEAKFEEASLFKRIIDGFKDCVQLVNFQCKEDGIIAQAVDDSRVLLVSLEIGVEAFQEYRCDHPVTLGMDLTSLSKILRCGNNTDTLTLIADNTPDSIILLFEDTKKDRIAEYSLKLMDIDADFLKIEELQYDSTLSLPSSEFSKIVRDLSQLSDSINIMITKETIKFVADGDIGSGSVIIKPFVDMEHPETSIKLEMDQPVDLTFGAKYLLDIIKGSSLSDRVGIRLSSEAPALFQFDLKSGFLQFFLAPKFNDEE
B2: Neurospora crassa proliferating cell nuclear antigen (NcPCNA), GST tag cleaved (natural protein)
chain: MLEARLEQASILKKVVDAIKDLVQDCNFDCNDSGIALQAMDNSHVALVSMMLKTETFSPFRCDRNIALGVNLTSLTKVLRAAQNEDILTLKAEDAPDVLNLVFESSENDRISEYDLKLMDIDQEHLGIPDTEYAATISMPSSEFKRITTDLMAMSESVNIEASKDGVKFSCQGDIGNGSITLRQHTNVDKPSENIEIELSEPVSLTFSLKYLVNFCKASALSSTVKICLSNEVPLLVEYNISASSYLRFYLAPKIGDEE

Experiments:
[1] = biological target: T1, Saccharomyces cerevisiae Pol32, …; experiment: ITC; settings: remark: other sources report otherwise
native gel or EMSA = biological target: the molecule itself; experiment: native gel or EMSA
[2] = biological target: T2, Saccharomyces cerevisiae Pol32, …; experiment: ITC

Binder | Kd [1] [µM] | dH [1] [kcal/mol] | stoichiometry N [1] | stoichiometry N (native gel or EMSA) | Kd [2] [µM] | dH [2] [kcal/mol] | stoichiometry N [2]
B1 | 2.75 | -1.48 | 1.05 | – | – | – | –
B2 | – | – | – | 3 | 4.28 ± 0.325 | -1.24 ± 0.0554 | 1.06 ± 0.035
